From publication PMC9059161 come the findings set out here.

The assay has as its target RHAU–casp9.

Turning to RHAU–casp9 (enzyme), the time to cleave half of casp3 (12 μM) by RHAU–casp9 (150 nM) without TERRA turned out to be 120 min.
